{
  "source": "paper PMC8326586",
  "data": [
    {"system": "T1, AbTetR (TetR class G) (Acinetobacter baumannii AYE), ORF:695ec09f", "T1 sequence": "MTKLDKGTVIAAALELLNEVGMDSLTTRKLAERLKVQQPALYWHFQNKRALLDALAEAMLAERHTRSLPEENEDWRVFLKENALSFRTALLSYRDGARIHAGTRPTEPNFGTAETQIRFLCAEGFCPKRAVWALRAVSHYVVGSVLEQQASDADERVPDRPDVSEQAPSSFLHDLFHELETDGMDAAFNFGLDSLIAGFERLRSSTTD", "test": "EMSA", "values": [
      {"sequence": "CTGAAACTCCAGCGCCGCTCAATGGAGCGACTTTATCAACGATAAGGAGATGGACATATAACTTA (double strand) [65 bp tetR-tetA(G) fragment]", "binding": "binds"},
      {"sequence": "GCACAAGCTCACGCAGAAGCGTCGGAAGGACGGGCATGATGAGGCCGAGACCCATGGCGTCAAGACCCACGATCAGCAGGGCAATGATGGCAGAGCTGCGCACCTGAAACTCCAGCGCCGCTCAATGGAGCGACTTTATCAACGATAAGGAGATGGACATATAACTTATCGGTGATAAATTGTCAAGCACTGGCGAAGGAACGTGA (double strand) [206 bp tetR-tetA(G) fragment]", "binding": "binds"},
      {"sequence": "ATCAACGATAAGGAGATGGACATATAACTTATCGGTGATAAATTGTCAAGCACTGGCGAAGGAACGTGA (double strand) [70 bp tetR-tetA(G) fragment]", "binding": "binds"},
      {"sequence": "CTGAAACTCCAGCGCCGCTCAATGGAGCGACTTTATCAACGATAAGGAGATGGACATATAACTTATCGGTGATAAATTGTCAAGCACTGGCGAAGGAACGTGA (double strand) [103 bp tetR-tetA(G) fragment]", "binding": "binds"},
      {"sequence": "CTGAAACTCCAGCGCCGCTCAATGGAGCGACTTTATCAACGATAAGGAGATGGACATATAACTTATCGGTGATAAATTGTCAAGCACTGGCGAAGGAACGTGAATGACCAAACTGGACAAGGGCACCGTGATCGCGGCGGCGCTAGAGCTGTTGAACGAGGTTGGCATGGACAGCCTGACGACGCGGAAGCTCGCTGAACGCCTCAAGGTTCAGCA (double strand) [216 bp tetR-tetA(G) fragment]", "binding": "binds"},
      {"sequence": "CGAATCAAGCAGGAACCATCCAAGATTGGCATAAAAGGTACATTCAACCTTTTCACTGCATCCCATTGGTGCACGTACTCGGTCTTGCAACTCGGA (double strand) [96 bp non-binding sequence]", "binding": "no binding"}
    ]}
  ]
}
